Reference: the supplement of paper PMC9732359
± gives the uncertainty stated by the source.

Test: protein stability index of a GFP-peptide fusion (yeast GPS) (PSI 1-4); higher = more stable; sorted into four equal gates, so the index is relative within each strain
Summary of the method: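 For each peptide, the protein stability index sums the read frequency in every gate after multiplying it by the gate number. Read frequencies came from plasmids that were PCR-amplified from each gate and Illumina-sequenced, with reads assigned to strains by barcodes. The gates were four equal bins of GFP/Cherry fluorescence ratio applied to mid-log yeast in leucine-free medium carrying a pooled library of tiled 17-residue yeast protein peptides fused downstream of GFP on a Cherry-expressing plasmid.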

Sequence | protein stability index (doa10∆) | protein stability index (pdr5∆) | protein stability index (san1∆) | protein stability index (ubr1∆)
EDCDLVIMALMLMSKIG [POP5] | 1.46 ± 0.038 | 1.89 ± 0.053 | 1.81 ± 0.069 | 2.32 ± 0.037
ENENILIKAKNFLVFQG [SMC1] | 1.22 ± 0.094 | 1.25 ± 0.12 | 1.96 ± 0.22 | 1.17 ± 0.11
IPQSQQVPQVRSMSGQP [SNF5] | 2.52 ± 0.05 | 2.55 ± 0.047 | 2.5 ± 0.047 | 2.7 ± 0.039
FFEMLISKSLTFSQESG [RRI2] | 2.12 ± 0.082 | 1.45 ± 0.059 | 1.25 ± 0.12 | 1.66 ± 0.13
ELQMRSFLKEGDLLNAE [RRP4] | 2.71 ± 0.071 | 3.27 ± 0.11 | 3.07 ± 0.087 | 3.23 ± 0.08
ENELVITSIPKPLTENC [RMP1] | 3.42 ± 0.14 | 3.4 ± 0.11 | 3.39 ± 0.066 | 3.1 ± 0.07
RRDDEVLVVRGSKKGQE [RPL26A] | 3.63 ± 0.087 | 3.36 ± 0.089 | 3.59 ± 0.079 | 3.57 ± 0.085
ISTLQVKLYGREGSSAR [RPB2] | 2.71 ± 0.17 | 2.77 ± 0.1 | 2.77 ± 0.18 | 2.8 ± 0.086
ATPQDAQFYLGKRIAYV [RPL33A] | 2.29 ± 0.082 | 2.66 ± 0.07 | 2.57 ± 0.074 | 2.7 ± 0.075
LNRLLRLIVDPNIADYI [PRP8] | 1.83 ± 0.057 | 1.93 ± 0.05 | 1.64 ± 0.091 | 1.95 ± 0.044
KRNKYAAMLTSENAREI [RRP45] | 3.04 ± 0.063 | 3.1 ± 0.063 | 3.08 ± 0.057 | 2.96 ± 0.043
AGEFGLKNKKEIYRISF [RPS9A] | 2.58 ± 0.065 | 2.95 ± 0.089 | 3.08 ± 0.14 | 2.77 ± 0.066
MLTIARLGFFYNDQLYV [RPN7] | 2.13 ± 0.093 | 1.66 ± 0.19 | 1.47 ± 0.29 | 2.2 ± 0.19
KLNVDQFISSRQFEVKQ [POP1] | 2.99 ± 0.053 | 3.08 ± 0.055 | 3.01 ± 0.041 | 2.97 ± 0.059
QETCDKLRARLVEYGFD [SMC2] | 2.17 ± 0.14 | 2.52 ± 0.093 | 1.96 ± 0.089 | 1.57 ± 0.034
QLDSDANKLSKSHSTVS [ISW2] | 3.04 ± 0.063 | 2.85 ± 0.075 | 3 ± 0.13 | 3.06 ± 0.074
LNIDFGSDKQMFTQIYL [YML103C/NUP188] | 3.17 ± 0.14 | 2.99 ± 0.15 | 2.46 ± 0.12 | 3.25 ± 0.066
NIDINNEDENIQLIKIL [YJL041W/NSP1] | 2.52 ± 0.055 | 2.56 ± 0.071 | 2.99 ± 0.049 | 2.7 ± 0.042
LPVKWETTTQFKATHIL [FAS1] | 2.52 ± 0.06 | 2.32 ± 0.057 | 2.23 ± 0.063 | 2.34 ± 0.04
ITPMNDDQCMLITTYSK [SIN4] | 1.93 ± 0.064 | 2.41 ± 0.075 | 1.98 ± 0.22 | 1.99 ± 0.038
QGEEEELIALNLSEARL [RPB4] | 3.22 ± 0.12 | 3.53 ± 0.14 | 3.22 ± 0.078 | 3.26 ± 0.095
SFFNISPDAPKEIMDKI [SIN4] | 3.48 ± 0.11 | 3.32 ± 0.14 | 3 ± 0.13 | 3.29 ± 0.1
NTGGESVVKKEDNKYAI [RGR1] | 3.51 ± 0.1 | 3.39 ± 0.1 | 3.33 ± 0.094 | 3.4 ± 0.085
DLFGDSNKSNSTNESNK [SSN2] | 3.2 ± 0.078 | 3.3 ± 0.08 | 3.07 ± 0.064 | 3.29 ± 0.058
REDIDDPLAKVNVLLQS [BRR2] | 2.91 ± 0.12 | 3.04 ± 0.088 | 3.19 ± 0.092 | 2.96 ± 0.11
LQRPTATDEESVRLQRF [CSN12] | 2.75 ± 0.089 | 2.98 ± 0.12 | 2.97 ± 0.1 | 3.16 ± 0.1
